Experimental data reported in paper PMC11039992, “Distinct functions for the paralogous RBM41 and U11/U12-65K proteins in the minor spliceosome”.

T1: RBM41 RRM (C-terminal fragment) (Homo sapiens, UniProt Q96IZ5 267-413)
T1 sequence: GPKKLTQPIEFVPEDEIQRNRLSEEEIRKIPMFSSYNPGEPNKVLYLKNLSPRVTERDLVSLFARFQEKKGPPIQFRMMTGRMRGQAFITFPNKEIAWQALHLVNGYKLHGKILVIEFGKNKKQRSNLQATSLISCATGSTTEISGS

T2: U11/U12-65K C-terminal RRM (65K C-RRM) (Homo sapiens, UniProt Q96LT9 380-517)
T2 sequence: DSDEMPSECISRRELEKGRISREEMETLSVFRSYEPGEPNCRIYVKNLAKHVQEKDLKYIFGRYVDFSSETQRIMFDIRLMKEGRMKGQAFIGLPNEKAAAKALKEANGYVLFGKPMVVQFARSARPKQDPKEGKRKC

B1: U12-(109-125) hairpin (structured_RNA)
RNA: CCCGCCUACUUUGCGGG
B2: U6atac-(92-108) hairpin (structured_RNA)
RNA: GCCACCUACUUCGUGGC
B3: U12comp control hairpin (structured_RNA)
RNA: GGGCGGAUGAAACGCCC

Legend:
[1] = target: T1, RBM41 RRM (C-terminal fragment); assay: EMSA; 20 mM HEPES-KOH pH 8.0, 100 mM KCl, 1.5 mM MgCl2, 5% glycerol, 0.1 ug/ul BSA, 1 ug/ul yeast RNA, 1 U/ul RiboLock; 5 nM RNA, 0.25-25 uM protein; 1 h on ice, gel; conditions: protein: recombinant; tags: GST tag removed with PreScission protease (untagged); label: 5' 32P; hairpin
[2] = target: T2, U11/U12-65K C-terminal RRM (65K C-RRM); assay: as above; conditions: protein: recombinant; tags: GST tag removed with PreScission protease (untagged); label: 5' 32P; hairpin

Binder | Kd [1] [µM] | Kd [2] [µM] | binding result [1] | binding result [2]
B1 | 2.14 | 1.04 | – | –
B2 | 3.78 | 2.07 | – | –
B3 | – | – | no binding | no binding
